Measurements as given in publication PMC4376459, “CXCR3 antagonist VUF10085 binds to an intrahelical site distinct from that of the broad spectrum antagonist TAK-779” (British Journal of Pharmacology, 2015).

T1: CXCR3 (Homo sapiens, UniProt P49682)
T1 sequence (P49682 1-368): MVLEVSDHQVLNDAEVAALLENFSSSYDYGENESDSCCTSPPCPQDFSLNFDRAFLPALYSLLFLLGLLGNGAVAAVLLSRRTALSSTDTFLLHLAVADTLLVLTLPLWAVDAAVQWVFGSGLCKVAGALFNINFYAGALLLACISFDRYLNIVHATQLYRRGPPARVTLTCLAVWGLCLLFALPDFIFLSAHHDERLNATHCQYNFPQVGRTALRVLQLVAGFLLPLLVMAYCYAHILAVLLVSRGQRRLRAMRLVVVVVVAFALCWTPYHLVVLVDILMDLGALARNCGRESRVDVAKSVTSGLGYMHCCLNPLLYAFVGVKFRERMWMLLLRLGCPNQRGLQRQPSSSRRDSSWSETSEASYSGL

T2: CXCR3 I279A (Homo sapiens, UniProt P49682, I279A)
T2 construct: expressed in transfected cells; host or cells: murine pre-B cell line L1.2, transient transfection
T2 sequence (P49682 1-368 I279A): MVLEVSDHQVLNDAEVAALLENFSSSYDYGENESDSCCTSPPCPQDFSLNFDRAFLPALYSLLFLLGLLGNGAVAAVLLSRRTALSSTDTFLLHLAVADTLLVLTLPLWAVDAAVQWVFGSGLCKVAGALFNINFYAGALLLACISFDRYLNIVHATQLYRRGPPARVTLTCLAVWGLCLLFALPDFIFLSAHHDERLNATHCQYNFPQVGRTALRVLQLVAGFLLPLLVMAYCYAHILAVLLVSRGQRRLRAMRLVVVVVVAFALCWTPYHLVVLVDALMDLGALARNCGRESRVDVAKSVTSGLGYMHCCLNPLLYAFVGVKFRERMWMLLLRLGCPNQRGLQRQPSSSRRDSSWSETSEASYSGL

T3: CXCL11 (Homo sapiens, UniProt O14625)
T3 chain: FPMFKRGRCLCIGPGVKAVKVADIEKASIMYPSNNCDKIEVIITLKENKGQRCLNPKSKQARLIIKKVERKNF


Assays:
CXCR3 = biological target: T1, CXCR3; experiment: Activity at CXCR3 (data not shown)
CXCR3 I279A = biological target: T2, CXCR3 I279A; experiment: Whole-cell 125I-CXCL11 binding assay, L1.2 transfectants; conditions: I279A versus WT
CXCL11 = biological target: T3, CXCL11; experiment: homologous competition binding with 125I-CXCL11 on L1.2 transfectants

Kd (CXCL11) [nM]	Molecule	also measured
–	CCCCOCCOc1ccc(-c2ccc3c(c2)/C=C(/C(=O)Nc2ccc([S@@+]([O-])Cc4cncn4CCC)cc2)CCCN3CC(C)C)cc1 [TAK-652]	activity at CXCR3 (CXCR3): devoid of activity
–	CCOc1ccc(-n2c(C(C)N(Cc3cccnc3)C(=O)Cc3ccc(OC(F)(F)F)cc3)nc3ncccc3c2=O)cc1 (stereo not drawn) [VUF 10085, N-1R-[3-(4-ethoxy-phenyl)-4-oxo-3,4-dihydro-pyrido[2,3-d]pyrimidin-2-yl]-ethyl-N-pyridin-3-ylmethyl-2-(4-trifluoromethoxy-phenyl)-acetamide]	decrease in potency, ligand binding (CXCR3 I279A): twofold
10.4	CXCR3 (protein) MVLEVSDHQVLNDAEVAALLENFSSSYDYGENESDSCCTSPPCPQDFSLNFDRAFLPALYSLLFLLGLLGNGAVAAVLLSRRTALSSTDTFLLHLAVADTLLVLTLPLWAVDAAVQWVFGSGLCKVAGALFNINFYAGALLLACISFDRYLNIVHATQLYRRGPPARVTLTCLAVWGLCLLFALPDFIFLSAHHDERLNATHCQANFPQVGRTALRVLQLVAGFLLPLLVMAYCYAHILAVLLVSRGQRRLRAMRLVVVVVVAFALCWTPYHLVVLVDILMDLGALARNCGRESRVDVAKSVTSGLGYMHCCLNPLLYAFVGVKFRERMWMLLLRLGCPNQRGLQRQPSSSRRDSSWSETSEASYSGL	–
7.7	CXCR3 (protein) MVLEVSDHQVLNDAEVAALLENFSSSYDYGENESDSCCTSPPCPQDFSLNFDRAFLPALYSLLFLLGLLGNGAVAAVLLSRRTALSSTDTFLLHLAVADTLLVLTLPLWAVDAAVQWVFGSGLCKVAGALFNINFYAGALLLACISFDRYLNIVHATQLYRRGPPARVTLTCLAVWGLCLLFALPDFIFLSAHHDERLNATHCQYNFPQVGRTALRVLQLVAGFLLPLLVMAYCYAHILAVLLVSRGQRRLRAMRLVVVVVVAFALCWTPYHLVVLVDILMDLGALARNCGRESRVDVAKSVTSGLGYMHCCLNPLLYAFVGVKFRERMWMLLLRLGCPNQRGLQRQPSSSRRDSSWSETSEASYSGL	–
7.4	CXCR3 (protein) MVLEVSDHQVLNDAEVAALLENFSSSYDYGENESDSCCTSPPCPQDFSLNFDRAFLPALYSLLFLLGLLGNGAVAAVLLSRRTALSSTDTFLLHLAVADTLLVLTLPLWAVDAAVQWVFGSGLCKVAGALFNINFYAGALLLACISFDRYLNIVHATQLYRRGPPARVTLTCLAVWGLCLLFALPDFIFLSAHHDERLNATHCQYNFPQVGRTALRVLQLVAGFLLPLLVMAYCYAHILAVLLVSRGQRRLRAMRLVVVVVVAFALCWTPYHLVALVDILMDLGALARNCGRESRVDVAKSVTSGLGYMHCCLNPLLYAFVGVKFRERMWMLLLRLGCPNQRGLQRQPSSSRRDSSWSETSEASYSGL	–
1.8	CXCR3 (protein) MVLEVSDHQVLNDAEVAALLENFSSSYDYGENESDSCCTSPPCPQDFSLNFDRAFLPALASLLFLLGLLGNGAVAAVLLSRRTALSSTDTFLLHLAVADTLLVLTLPLWAVDAAVQWVFGSGLCKVAGALFNINFYAGALLLACISFDRYLNIVHATQLYRRGPPARVTLTCLAVWGLCLLFALPDFIFLSAHHDERLNATHCQYNFPQVGRTALRVLQLVAGFLLPLLVMAYCYAHILAVLLVSRGQRRLRAMRLVVVVVVAFALCWTPYHLVVLVDILMDLGALARNCGRESRVDVAKSVTSGLGYMHCCLNPLLYAFVGVKFRERMWMLLLRLGCPNQRGLQRQPSSSRRDSSWSETSEASYSGL	–
2.9	CXCR3 (protein) MVLEVSDHQVLNDAEVAALLENFSSSYDYGENESDSCCTSPPCPQDFSLNFDRAFLPALYSLLFLLGLLGNGAVAAVLLSRRTALSSTDTFLLHLAVADTLLVLTLPLWAVDAAVQWVFGSGLCKVAGALFNINFYAGALLLACISFDRYLNIVHATQLYRRGPPARVTLTCLAVWGLCLLFALPDFIFLSAHHDERLNATACQYNFPQVGRTALRVLQLVAGFLLPLLVMAYCYAHILAVLLVSRGQRRLRAMRLVVVVVVAFALCWTPYHLVVLVDILMDLGALARNCGRESRVDVAKSVTSGLGYMHCCLNPLLYAFVGVKFRERMWMLLLRLGCPNQRGLQRQPSSSRRDSSWSETSEASYSGL	–
1.1	CXCR3 (protein) MVLEVSDHQVLNDAEVAALLENFSSSYDYGENESDSCCTSPPCPQDFSLNFDRAFLPALYSLLFLLGLLGNGAVAAVLLSRRTALSSTDTFLLHLAVADTLLVLTLPLWAVDAAVQWVFGSGLCKVAGALANINFYAGALLLACISFDRYLNIVHATQLYRRGPPARVTLTCLAVWGLCLLFALPDFIFLSAHHDERLNATHCQYNFPQVGRTALRVLQLVAGFLLPLLVMAYCYAHILAVLLVSRGQRRLRAMRLVVVVVVAFALCWTPYHLVVLVDILMDLGALARNCGRESRVDVAKSVTSGLGYMHCCLNPLLYAFVGVKFRERMWMLLLRLGCPNQRGLQRQPSSSRRDSSWSETSEASYSGL	–
